The target in assay [1] is cynomolgus LAG-3 ECD human IgG1 Fc fusion (cynomolgus; human) (UniProt P18627). Nature of the assay: SPR, Fab over captured LAG-3 ECD-Fc.
In assay [2] the target is human LAG-3 ECD human IgG1 Fc fusion (human) (UniProt P18627). Put plainly: SPR, Fab over captured LAG-3 ECD-Fc.
Assay [3] concerns the target human LAG-3 domain 1-2 Fc fusion, chimeric construct #23 (mutated region AA 148-152) (human) (UniProt P18627). Put plainly: SPR, Fab over captured mutant LAG-3-Fc.
In assay [4] the target is human LAG-3 domain 1-2 Fc fusion, point mutation #78 R154A (human) (UniProt P18627). Put plainly: SPR, Fab over captured mutant LAG-3-Fc.
Chain of human LAG-3 domain 1-2 Fc fusion, point mutation #78 R154A (human) (P18627 23-266 R154A): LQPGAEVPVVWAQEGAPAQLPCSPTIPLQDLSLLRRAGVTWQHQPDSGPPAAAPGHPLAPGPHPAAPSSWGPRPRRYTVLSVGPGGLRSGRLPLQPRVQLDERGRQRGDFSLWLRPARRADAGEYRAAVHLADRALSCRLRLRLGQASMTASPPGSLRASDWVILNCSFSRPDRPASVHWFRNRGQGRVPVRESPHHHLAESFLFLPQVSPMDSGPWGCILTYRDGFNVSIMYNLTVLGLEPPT

Chain of cynomolgus LAG-3 ECD human IgG1 Fc fusion (cynomolgus; human) (P18627 other isoform, or with tags, fused parts or gaps, form in doubt): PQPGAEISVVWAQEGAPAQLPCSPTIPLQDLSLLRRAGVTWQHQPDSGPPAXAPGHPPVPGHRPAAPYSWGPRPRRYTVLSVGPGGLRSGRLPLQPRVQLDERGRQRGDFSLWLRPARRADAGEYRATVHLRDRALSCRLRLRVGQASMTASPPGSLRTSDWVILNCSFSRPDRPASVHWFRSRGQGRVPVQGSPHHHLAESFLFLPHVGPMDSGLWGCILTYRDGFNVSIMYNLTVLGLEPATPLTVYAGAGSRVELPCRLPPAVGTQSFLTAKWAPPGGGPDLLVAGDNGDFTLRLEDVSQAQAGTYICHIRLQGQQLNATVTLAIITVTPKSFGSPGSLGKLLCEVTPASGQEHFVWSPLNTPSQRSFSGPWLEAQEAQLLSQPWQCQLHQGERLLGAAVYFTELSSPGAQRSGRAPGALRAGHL
Chain of human LAG-3 ECD human IgG1 Fc fusion (human) (P18627 23-450): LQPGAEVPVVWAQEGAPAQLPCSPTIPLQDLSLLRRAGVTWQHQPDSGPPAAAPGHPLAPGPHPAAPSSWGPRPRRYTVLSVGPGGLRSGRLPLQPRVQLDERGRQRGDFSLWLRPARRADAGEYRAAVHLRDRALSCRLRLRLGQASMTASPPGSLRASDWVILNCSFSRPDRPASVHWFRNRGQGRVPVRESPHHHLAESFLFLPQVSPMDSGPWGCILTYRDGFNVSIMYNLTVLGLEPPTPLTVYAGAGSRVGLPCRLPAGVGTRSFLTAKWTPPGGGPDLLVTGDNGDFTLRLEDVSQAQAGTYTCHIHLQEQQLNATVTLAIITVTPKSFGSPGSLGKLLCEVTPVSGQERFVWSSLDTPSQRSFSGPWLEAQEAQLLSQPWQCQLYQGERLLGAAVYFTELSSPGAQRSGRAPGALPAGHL
Chain of human LAG-3 domain 1-2 Fc fusion, chimeric construct #23 (mutated region AA 148-152) (human) (P18627 other isoform, or with tags, fused parts or gaps mutant): as the sequence (P18627 23-266 R154A) above, with R126H, A128F, H130R, A132R counted along it

In assay [1], Fab fragment of 25F7-Lag3.5 analogue returned a Kd of 910 nM, a koff of 0.0038 s⁻¹ and a kon of 4200 M⁻¹ s⁻¹. In addition, in assay [2], the Kd was 8.5 nM, the koff is 0.0012 s⁻¹ and the kon came out at 140000 M⁻¹ s⁻¹. In addition, the KD mutant/KD wild type in assay [3] is 0.8 fold. The substance also showed a KD mutant/KD wild type in assay [4] of 0.8 fold.

(Values after patent US20220363757A1.)
